Reference: the supplement of paper PMC10126150
± gives the standard deviation of the averaged measurements.

Tested on: ATP
Assay: switch fluorescence ratio, 500 uM ATP over buffer (Cy3 cluster intensity, sum of 5 cycles each) (fold (ratio)); higher = stronger signal-on switching upon ATP binding; sequences stand for … in TCGTCGGCAGCGTCAGATGTGTATAAGAGACAGTTTTTTTTTTTTTTTTTTTTTTTTT…TC
Settings: aptamer strand: ATP DNA aptamer (quencher-CACCTGGGGGAGTATTGCGGAGGAAGG + anchor), 100 nM annealed; ATP concentration: 500 uM
Method in brief: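 Exposure to 500 uM ATP lasted 15 min at 22 °C before imaging, and a selection-buffer image was taken beforehand, for Cy3-labelled switching-strand clusters on a modified Illumina MiSeq flow-cell annealed to 100 nM quencher-labelled ATP aptamer. Five buffer/ATP cycles were run with NaOH stripping and re-annealing between them. The fluorescence ratio per cluster is summed target-cycle over summed buffer-cycle Cy3 intensity, averaged per switch-domain sequence. Clusters outside 100-1000 RFU were excluded.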

Sequence | switch fluorescence ratio
CATTGTTTTG | 0.9676 ± 0.0041
ACCGGTAAAT | 1.01 ± 0.037
CTGGGGAGGG | 1 ± 0.048
GGGGTCATGC | 0.97 ± 0.041
CGGTAGGTTT | 0.9898 ± 0.0057
TAAGCCATCT | 1.04 ± 0.054
TACCAGCGCT | 0.993 ± 0.058
ACGAGGGAAA | 2.12 ± 1.6
TCTGAGAGAG | 0.9823 ± 0.0032
CTTTTTTAAT | 0.982 ± 0.012
TGACGGGCGG | 1 ± 0.015
GTTGATTGGG | 0.994 ± 0.029
AGAGGGTGAC | 1.01 ± 0.016
GCGATATATG | 0.9775 ± 0.0032
AGAAGAGGTG | 1.07 ± 0.029
CCTGCGGGGA | 1.31 ± 0.29
CGTAAGCGAG | 1.03 ± 0.062
TTGTTCTGGG | 0.972 ± 0.022
TAATAATATT | 1 ± 0.018
GCCCGTTTTT | 1 ± 0.029
TCAAAGTCAT | 0.991 ± 0.0068
GGCGGTTAAG | 1.013 ± 7.9e-05
TTGATGACGG | 0.9872 ± 0.0016
TGGTGGGGTG | 0.986 ± 0.012
TTGGTTTAAG | 1 ± 0.027

Sequence | switch fluorescence ratio
GATTCCTATC | 0.996 ± 0.039
GTTAGTTAAA | 0.968 ± 0.02
CGCCCGGAAT | 1.97 ± 0.3
AAAGAAGTGG | 0.959 ± 0.027
ATACGGTAGG | 1.006 ± 0.01
AATAGGGTTA | 1 ± 0.045
AAGAGGGGCG | 1.022 ± 0.0032
CAAATGCATA | 1.08 ± 0.017
GTGTGAGGTT | 0.989 ± 0.019
TAATGAGGTG | 1.04 ± 0.023
AGTATAAAAA | 1.03 ± 0.062
TTATCCACGA | 1.03 ± 0.033
CCGCATTTTT | 2.19 ± 0.82
GGGTATTATT | 1.022 ± 0.0047
TTGTGAGGCA | 1.006 ± 0.0066
GGGGTTCGGG | 0.992 ± 0.017
ACTCGAAGGG | 1.02 ± 0.042
TTCCATTCGA | 0.992 ± 0.044
CGGGGCTTAG | 1.0342 ± 0.00025
TTAAAGCCGG | 0.966 ± 0.061
GTTGAGTAGC | 1.02 ± 0.042
CTAAGGGGCT | 1.01 ± 0.015
GGGTTGTTAC | 1.14 ± 0.069
TCGATATTGG | 1.02 ± 0.022
TCGAATGTGC | 0.989 ± 0.022

Sequence | switch fluorescence ratio
GCAGGATGGG | 0.98 ± 0.019
CGGCGGCCCT | 1.005 ± 0.0092
TTGAGCGGGG | 0.9876 ± 0.005
ATGGGTTGAG | 1.01 ± 0.0072
ACGGACGGGG | 1.11 ± 0.036
GGGTCTTATG | 1.03 ± 0.078
TCATGTTGGA | 0.977 ± 0.02
GGTGGTACTG | 1.01 ± 0.037
TGGGGTGCGA | 1.01 ± 0.042
CAAGAGGGCT | 1.024 ± 0.0043
AGAGAGGTTT | 0.986 ± 0.039
AATACGGCAC | 1.852 ± 0.006
TGGATTGTTT | 0.994 ± 0.03
GAAATTTAAA | 0.99756 ± 0.00083
AGGATCGACG | 0.925 ± 0.013
ACGGCAAGGG | 1.15 ± 0.063
GGAAAAAGCC | 0.9562 ± 0.0042
GGGGTCGTCT | 1.02 ± 0.015
TATGCATTAA | 1.01 ± 0.021
ACGCATTGGT | 1.188 ± 0.0086
TATACAGGGG | 1.2 ± 0.024
ATTAGTTGTG | 0.976 ± 0.011
AAGCGTTAGC | 1.01 ± 0.014
TTCCTTTTTA | 1.02 ± 0.015
TCATTGTTTT | 1.01 ± 0.019

Sequence | switch fluorescence ratio
GGGAATTGTG | 0.993 ± 0.06
CGGGGGACGT | 0.9794 ± 0.0085
TTTTTTATAT | 0.987 ± 0.025
TCATTCTTTA | 1.01 ± 0.019
GAGGGCCTTA | 0.9885 ± 0.0025
TCTTGGTTTC | 0.997 ± 0.013
TTGGCTTAG | 0.999 ± 0.014
ATGTGCGCAC | 1.002 ± 0.0023
TCTCCCTTGT | 1.03 ± 0.024
CAAAAGTTGA | 1.01 ± 0.053
AACTAGTGGC | 0.998 ± 0.049
CGGGTGACGG | 1.05 ± 0.057
CCTATTGGGG | 1.02 ± 0.037
GTGTTTATGG | 0.984 ± 0.011
AAGAATTGCG | 0.97 ± 0.033
GTTGAATTAA | 0.985 ± 0.041
TTTGCTGCGG | 1.03 ± 0.041
CGTGGAGGTG | 1.07 ± 0.036
TCATGAGCCA | 1.04 ± 0.025
CGAGTGGGGT | 1.01 ± 0.043
GATAGGAGGG | 0.959 ± 0.012
CAGAACGGCA | 1.095 ± 0.0092
TTTGGGGTTT | 1.07 ± 0.24
CGGGGGTCTA | 1.01 ± 0.045
ACATTGGGGC | 0.978 ± 0.046
